Assay results: doi:10.64898/2025.12.01.691715

Assays:
[1] = molecular target: Myosin11 (smooth muscle myosin heavy chain, myosin II isoform) (mouse (endogenous in retina)) (UniProt O08638)
[2] = molecular target: Myosin11 (smooth muscle myosin heavy chain, myosin II isoform) (mouse (endogenous in retina)) (UniProt O08638); assay: FRET or BRET

UniProt O08638, sequence (O08638 whole entry, canonical isoform): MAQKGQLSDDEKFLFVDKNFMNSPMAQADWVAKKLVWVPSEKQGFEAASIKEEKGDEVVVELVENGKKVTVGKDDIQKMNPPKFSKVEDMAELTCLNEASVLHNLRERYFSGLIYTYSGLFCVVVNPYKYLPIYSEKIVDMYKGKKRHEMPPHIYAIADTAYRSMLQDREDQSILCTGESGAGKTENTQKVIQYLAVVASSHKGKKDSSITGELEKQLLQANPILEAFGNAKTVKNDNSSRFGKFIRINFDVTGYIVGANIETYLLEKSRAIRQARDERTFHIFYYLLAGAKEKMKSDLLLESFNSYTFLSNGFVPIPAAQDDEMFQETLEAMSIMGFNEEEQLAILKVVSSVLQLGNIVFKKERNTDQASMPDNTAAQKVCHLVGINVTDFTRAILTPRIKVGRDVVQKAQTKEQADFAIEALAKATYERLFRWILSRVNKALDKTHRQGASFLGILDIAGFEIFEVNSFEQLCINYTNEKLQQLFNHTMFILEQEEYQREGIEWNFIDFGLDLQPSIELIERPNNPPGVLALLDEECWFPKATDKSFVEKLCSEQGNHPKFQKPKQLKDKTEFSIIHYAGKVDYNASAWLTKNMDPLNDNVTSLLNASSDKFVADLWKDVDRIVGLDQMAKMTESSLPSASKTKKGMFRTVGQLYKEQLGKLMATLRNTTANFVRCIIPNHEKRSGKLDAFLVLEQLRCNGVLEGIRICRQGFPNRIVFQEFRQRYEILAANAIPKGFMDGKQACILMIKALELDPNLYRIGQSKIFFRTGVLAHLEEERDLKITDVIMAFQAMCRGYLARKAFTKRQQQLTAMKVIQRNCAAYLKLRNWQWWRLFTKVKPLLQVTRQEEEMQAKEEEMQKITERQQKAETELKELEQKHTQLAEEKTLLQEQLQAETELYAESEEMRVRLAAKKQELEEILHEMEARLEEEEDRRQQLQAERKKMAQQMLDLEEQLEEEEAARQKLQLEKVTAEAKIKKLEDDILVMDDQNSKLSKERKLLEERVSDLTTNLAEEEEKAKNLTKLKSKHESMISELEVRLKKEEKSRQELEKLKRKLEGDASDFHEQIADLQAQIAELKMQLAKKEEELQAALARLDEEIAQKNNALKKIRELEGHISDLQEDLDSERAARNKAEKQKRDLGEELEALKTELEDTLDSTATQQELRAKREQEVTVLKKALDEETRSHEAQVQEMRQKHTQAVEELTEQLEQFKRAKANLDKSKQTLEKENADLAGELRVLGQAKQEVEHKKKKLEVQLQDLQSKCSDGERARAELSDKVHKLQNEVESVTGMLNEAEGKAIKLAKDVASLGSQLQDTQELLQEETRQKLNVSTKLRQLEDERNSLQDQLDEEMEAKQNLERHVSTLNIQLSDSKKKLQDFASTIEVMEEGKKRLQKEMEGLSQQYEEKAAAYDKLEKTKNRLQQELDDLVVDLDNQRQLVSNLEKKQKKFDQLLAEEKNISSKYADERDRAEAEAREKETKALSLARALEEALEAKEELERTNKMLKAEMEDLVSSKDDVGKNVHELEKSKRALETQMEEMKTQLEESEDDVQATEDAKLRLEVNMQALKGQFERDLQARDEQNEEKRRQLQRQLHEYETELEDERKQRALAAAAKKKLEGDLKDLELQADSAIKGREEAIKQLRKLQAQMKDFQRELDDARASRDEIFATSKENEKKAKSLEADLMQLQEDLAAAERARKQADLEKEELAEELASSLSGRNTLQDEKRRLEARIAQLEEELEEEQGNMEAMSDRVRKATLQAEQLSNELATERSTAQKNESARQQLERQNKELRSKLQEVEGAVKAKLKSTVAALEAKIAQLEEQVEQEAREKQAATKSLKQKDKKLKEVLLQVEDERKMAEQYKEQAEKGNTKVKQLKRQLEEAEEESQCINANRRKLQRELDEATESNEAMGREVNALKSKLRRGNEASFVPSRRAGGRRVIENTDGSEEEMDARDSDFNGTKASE

α-smooth muscle actin (α-SMA) (from UniProt P62737 1-377) (natural protein)
JNDR after noradrenaline, mesh pericytes (orders 3-4), blebbistatin vs. vehicle [1]: 0.81 | FRET efficiency [2]: > 0.8
